Results on one molecule are retold here after patent US20160237143A1 (OSTERREICHISCHE AKADEMIE DER WISSENSCHAFTEN, published 2016).

Residue numbers refer to the chain shown, from its start.

Test [1] has as its target T1, HPV 16 E7 mutant C58G/C91G (human papillomavirus type 16, UniProt P03129 1-98).
T1 sequence: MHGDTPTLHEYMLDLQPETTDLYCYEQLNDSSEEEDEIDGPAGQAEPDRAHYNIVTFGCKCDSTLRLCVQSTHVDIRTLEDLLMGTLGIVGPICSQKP
Put plainly: indirect immunofluorescence on transiently transfected U-2OS cells.

In test [2] the target is T2, HPV 16 E7 mutant C58G (human papillomavirus type 16, UniProt P03129 1-98).
T2 sequence: T1 sequence with G91C
The description is as above.

Test [3] addresses T3, HPV 16 E7 mutant C91G (human papillomavirus type 16, UniProt P03129 1-98).
T3 sequence: T1 sequence with G58C
Described as above.

Test [4] deals with T4, HPV 18 E7 protein (human papillomavirus type 18, UniProt P06788 1-105).
T4 construct: also called E7 protein of HPV 18
T4 sequence: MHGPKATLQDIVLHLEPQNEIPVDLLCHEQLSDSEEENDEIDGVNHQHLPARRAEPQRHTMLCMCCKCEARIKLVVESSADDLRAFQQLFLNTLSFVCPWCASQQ
Put plainly: confocal immunofluorescence on U-2OS cells overexpressing E7.

In test [5] the target is T5, HPV 45 E7 protein (human papillomavirus type 45, UniProt P21736 1-106).
T5 construct: also called E7 protein of HPV 45
T5 sequence: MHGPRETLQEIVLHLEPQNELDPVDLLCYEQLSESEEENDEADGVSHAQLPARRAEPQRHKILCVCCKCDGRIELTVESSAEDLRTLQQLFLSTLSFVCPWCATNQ
The description is as above.

In test [6] the target is T6, HPV 16 E7 derived synthetic 13mer peptide 43 (amino acids 85 to 97) (human papillomavirus type 16).
T6 construct: Immobilised on a peptide microarray
T6 peptide: GTLGIVCPICSQK
Put plainly: peptide microarray, anti-rabbit-Cy5.
Description: (§1) HPV 16 E7 epitopes were analyzed by JPT Peptide Technologies GmbH (Berlin, Germany) using peptide microarrays. […] The determination of peptide-antibody binding was performed by RepliTope-analysis where the peptide microarray was incubated with the primary antibody followed by a fluorescently labelled secondary antibody (anti-rabbit-Cy5). After washing the peptide microarrays were dried using a microarray centrifuge and scanned in a high resolution microarray scanning system with appropriate wavelength settings.

Test [7] deals with T7, HPV 16 E7 derived synthetic 13mer peptide 44 (amino acids 86 to 98) (human papillomavirus type 16).
T7 construct: Immobilised on a peptide microarray
T7 peptide: TLGIVCPICSQKP
Put plainly: peptide microarray, anti-rabbit-Cy5.
Description: as §1

Test [8] has as its target T8, HPV 11 E7 protein (human papillomavirus type 11, UniProt P04020 1-98).
T8 construct: also called low-risk HPV type 11 E7
T8 sequence: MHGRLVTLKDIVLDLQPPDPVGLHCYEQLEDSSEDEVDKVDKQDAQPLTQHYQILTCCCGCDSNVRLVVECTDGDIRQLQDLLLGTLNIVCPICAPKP
Put plainly: direct ELISA, coated recombinant E7, biotinylated antibody.

B1: monoclonal anti-HPV 16 E7 antibody of the present invention (rabbit monoclonal, hybridoma Klon 42-3-78, DSM ACC3034) (antibody, V domains shown)
VH: QSLEESGGRLVTPGGSLTLTCTVSGIDLSTYEISWVRQAPGKGLEWIGIIGTSANTVYASWAKGRFTISKSSTTVDLRVTSLTTEDTATYFCARAYDEYGIHAFHPWGPGTLVTVSS
VL: AQVLTQTPSPVSAAVGGTVTINCQASQSVYNAKNLAWYQQKPGQPPKLLIYQASTLASGVPSRFKGSGSGTQFTLTISGVQCDDAATYYCQGEFSCSSADCNVFGGGTEVVVKG
notes: Rabbit IgG purified from hybridoma supernatant on Protein G; used plain or biotinylated; also called monoclonal antibody against HPV 16 E7; RabMab
For the molecule B1, the binding result in test [1] was “no binding”; in test [2], “no binding”; in test [3], “no binding”; in test [4], “no binding (tested: 25 µg/ml)”; in test [5], “no binding (tested: 25 µg/ml)”; in test [6], “binds”. For the same molecule, the binding result in test [7] is “binds”; in test [8] it was “no binding (tested: 2.5 and 10 ng coated E7 protein)”.
